Reference: the DeepSol protein solubility set

experiment: soluble on expression in E. coli; label from the status in PepcDB or PDB records

Sequence	soluble on expression in E. coli
RPSINFYESLIDSSSLDGKLLSPRRSSGWVRVDTNMWGNPFFGFRSDLVSGQFRPDYPFRFSSNLYLSKEVKEIVLNTIASTPRNGVGRYKYSDLGFILLQQIVEKVSGKSLNVFVEERIFRPIGAGSLGYLPLDKYSVSRIAPAQNDKFLRKSIVRGTVDDE	not soluble
RQTDFTRPDGSRSTVALLQGNIDQTLKWREDQVIPTIQKYYEQVGKTTADIVILPETAIPVMRQNLPENILAKFAEQAQNNGSALAVGISQYTSDGNGYENAVINLTGYQENNQDGIPYYAKNHLVPFGEYKPLPFLTTPLYKMMDMPLSDFRKGGGKQSALLMKNQKIAFNICYEDGFGDELIAAAKDATLLANASNMAWYGKSNAMYQHLQQSQARAMELGRYMVRATNTGATAIISPKGNIIAQAQPDTETVLEGHIKGYVGETPYMKTG	not soluble
RRNLGGRLYLVTYGKAAALHLDPVEKKPLYHFHPGEGILSVGTVGCNLFCAFCQNWQISQFREFRVSPEGRLDRPIGEDWPPKRLVAEAEALGVRLLAYTYNEPAVWIEYAHDTARLAKARGMKNVFVTSGFETKEAWDYIRPHLDAANVDLKGFTEKFYREVCGARLKPVLESLGHLVASGVWVEVTTLLLEGYNDSDEEVRAMARFLKGLSPDIPWHLTAAHPDYRMLDLRSTRHATLVRAHAIAK	not soluble
RRRAKGLRREEVAQLAGISATWLTWLEQGRSESVSAQTLSRLAAALQLSGAETDYLFDLAGLKNPQEKRADANPQAREILEEMLPRIDMPAYVLDRLWRAVAWNRAAEELFC	not soluble
RRSRKLERKKIVLGVTGSIAAVETVKLARELVRRGADVTAVMSRAARKIIHPYALEFATGKRVVTEITGSIEHVNLLGEYGDADLFLIAPCTANTISKIAQGIDDTPVTTFATTALGSGKPIIIVPAMHEAMMRNKAVLENIQRLIDMGIEFVQPRIEEGKAKFPSTETICLHVERELYPKEMKGKRVV	not soluble
RRVVVTGLGMVTPLGRGVETTWRRLIDGECGIRGLTLDDLKMKSFDEETKLYTFDQLSSKVAAFVPYGSNPGEFDEALWLNSKAVANFIGYAVCAADEALRDAEWLPTEEEEKERTGVSIGGGIGSICDIVEAAQLICEKRLRRLSPFFIPKILVNMASGHVSMKYGFQGPNHAAVTACATGAHSIGDATRMIQFGDADVMVAGGTESSIDALSVAGFSRSRALSTKFNSSPQEASRPFDCDRDGFVIGEGSGVIVLEEYEHAKRRGAKIYAELCGYGMSGDAHHITQPPEDGKGAVLAMTRALRQSGLCPNQIDYVNAHATSTPIGDAVEARAIKTVFSEHATSGTLAFSSTKGATGHLLGAAGAVEAIFSILAIHHGVAPMTLNVKNPDPIFDKRFMPLTTSKKMLVRTAMSNSFGFGGTNASLLFASI	soluble
RSLTMTLEELMNAPAPASRWVLERDCAETGLDPADIRAEMLRRIGEMRSSVERGLQSDARSITGMVGWNAKGLWDAPDVLGAPLLKRVQAYAMAVNEENARMGRIVAAPTAGSAGTIPGALLGVADHLGLSDEQLVDPMILAAGVGKAISKRMFISGAAGGCQAE	not soluble
RSRGNFPIYNNTRVTYFPTGETFFDSLKEQLFLAKKYIFLEFFIIAEGQMWGEILSILEKKVSEGVEVRVLFDGMNELSTLSSDYAKRLEQIGIKAKSFLPISPFISTYYNYRDHRKIVVIDGEVSFTGGINLADEYINEVERFGHWKDAGLMLEGEATDSFLILFLQMWSITEKELIIDPYLSDHSLKLPSDGYVIPYGDSPLDTDKIGKNV	not soluble
RTAAELMGRCSSKGLGISDIMFINERASRSEEEIREGLLHIWSVMEACVETSLKREGVLPGGLKVRRRSPDWLERLLKEDKDRNDPKYWQEWVNLIALAVNEENASGGRVVTAPTNGAAGIIPAVLYYALNYAPGMDKASQADKDDVVVKFLLAAGAVGVLYKEQASISGAEVGCQGEVGSASSMAAAGLAEVMGGSPGQVENAAEIAMEHNLGLTCDPIGGLVQIPCIERNAIAAAKAINAAKMALWGDGTHRVSLDEVIVTMRETGKDMSSKYKETAMGGLAVN	not soluble
RTGRELLDMCRASGHSVAGLMMRNELTWRGAAEIEQGLDRIWEVMQECVARGCGIGHPEADGDLPGPLKVRRRAPELYRALTQRAERTLSDPLSVMDWVNLYAMAVNEENAAGGRVVTAPTNGAAGIIPAVLHYYDRFVPAANRAGVHDFLLTAAAIGLLYKYNASLSGAEVGCQGEVGVACSMAAGALAAVQGGSVEQVENAAEIGMEHNLGLTCDPVGGLVQIPCIERNAMASVKAVNAARMALRGDGHHYVSLDSVIKTMRETGADMKTKYKETARGGLAVN	not soluble
RYNGLTLRSVFQPIFDKQHQVVGAEALVRIFTQHHTQIRPDLFFHSETFADDDKLNVERLSRAIHIRNFSLSPYRDTRLFLNVLPVAGEQFAYCDISSTLLATRLAELNIPHHRVVMELVEIESGDEGMLQMATEKLVANGFQIAIDDFGCKASTPERVAMLRPNIIKLDRQLLLDFMAGDCCGLLAGVQLAQKTGAHTVVEGIETAEQLAAMQKLDINMYQGYYLALPEGIAQTAKVANAN	not soluble
SAAAAFDPLGPLPVYLVSVRLGIYEDEHHRVWIVANVETSHSSHGNRRRTHVTVHLWKLIPQQVIPFNPLNYDFLPTTWKLESRNIYWATDGTHWRLLDHSQLGDTEQLILMLVLG	soluble
SAAFPQWTRVDDKRFELALLQIPEGSPNFIENIAYYLQKPVKEVEYYYCALVHDIERIESGKYVLPKYPEDDYVKLTEAGESKGNGKKTGIPWSEEEQRLFLEGLNKFGKGDWKNISRYCVKSRTSTQVASHAQKYFARQKQESTNTKRPSIHDMTLGVAVNVPGSNLESTGQQPHFGDQIPSNQYYPSQENFRGFDQRW	soluble
SAAPVDLELKKAFTELQAKVIDTQQKVKLADIQIEQLNRTKKHAHLTDTEIMTLVDETNMYEGVGRMFILQSKEAIHSQLLEKQKIAEEKIKELEQKKSYLERSVKEAEDNIREMLMARRAQ	soluble
SAEGSRGGPTCSGVGGRQDPVSGSGGCNFPEYELPELNTRAFHVGAFGELWRGRLRGAGDLSLREPPASALPGSQAADSDREDAAVARDLDCSLEAAAELRAVCGLDKLKCLEDGEDPEVIPENTDLVTLGVRKRFLEHREETITIDRACRQETFVYEMESHAIGKKPENSADMIEEGELILSVNILYPVIFHKHKEHKPYQTMLVLGSQKLTQLRDSIRCVSDLQIGGEFSNTPDQAPEHISKDLYKSAFFF	soluble
SAGLGANSDVMVKLDDGHLNNSLRSPVQAGVYFRGHIKGGMRPGKKVLVMGIVDHNPKSFAISLTCGDSEDPPADVAIELKVVFTNQQVFRNSCISGESDEENLAFPYFPFVPDQPFRMEIFCQQPCFRVLVDGHHLFDFYHRIQTLSAIDSIKISGDLQITKLG	soluble
SAMAQKEEGHEAAAAEAKKETDLAHVDQVETFVGKEKYYVVKGTDKKGTALYVWVPADKKAKILSKEAKEGISEDKAAKIIKDEGLVSKQKEVHLAREGNVLLWEVTYLDKEGQYSLSYVDFTTGKILKNITP	soluble
SAPAQEHPEATVLFSDIVGFTEIASRSSPLEVCSLLDELYQRFDAAIEEYPQLYKVETIGDAYMVVCNVTVPCDDHADVLLEFALRMHEEASRVASSLGEPVRIRVGMHSGPVVAGVVGRKMPRFCLFGDTVNTASRMESHGEAGQIHISEACYCCLRSKERFEIRERGNITVKGKGTMRTYLLSPLERT	soluble
SAPGWLKEMRGEHIPETEEYGISSFSFLARRPFHPEKFYHFLHDTEKFGKLIRSKGYFWLATRPQFSGQWNQAGGIAHYGFAAMFWKSVPKKDWPIDEESLNAIEKQWVEPFGDMRQELVFIGQQLDQGAMTNALNECLL	not soluble
SARGRKMSKPRAVEAAAAAAAVAATAPGPEMVERRGPGRPRTDGENVFTGQSKIYSYMSPNKCSGMRFPLQEENSVTHHEVKCQGKPLAGIYRKREEKRNAGNAVRSAMKSEEQKIKDARKGPLVPFPNQKSEAAEPPKTPPSSCDSTNAAIAKQALKKPIKGKQAPRKKAQGKTQQNRKLTDFYPVRRSSRKSKAELQSEERKRIDELIESGKEEGMKIDLIDGKGRGVIATKQFSRGDFVVEYHGDLIEITDAKKREALYAQDPSTGCYMYYFQYLSKTYCVDATRETNRLGRLINHSKCGNCQTKLHDIDGVRHLILIASRDIAAGEELLYDYGDRSKASIEAHPWLKH	not soluble
